Data: publication PMC7239452

Target: ERp29 (ER protein of 29 kDa; mouse, Min-6 insulinoma cells) (mouse (endogenous in Min-6)) (UniProt P57759)
Test: co-IP; Min-6 lysate, non-denaturing; 50 ug lysate protein, 2 ul primary antibody 1 h, Protein G agarose 2 h at room temperature; precipitated Proinsulin quantified by Mercodia rat/mouse Proinsulin ELISA; controls: no antibody, anti-V5

- fold precipitation of Proinsulin over the anti-V5 control: > 10 fold
Substance: Proinsulin (mouse, Min-6 insulinoma cells) (natural protein)
